Data as given in article PMC2952662.

Target: N-terminally His6-tagged Akt1 PH domain S2-S128 construct (human)
Assay: SPR

Akt inhibitor VI, a 15 residue peptide derived from the oncogene TCL1
Kd: 1.4 µM | koff: 0.000116 s⁻¹
